The target of experiment [1] is human PD-L1 expressed on cells (human, UniProt Q9NZQ7 19-290). The experiment can be described thus: cell-based or functional assay.
For experiment [2], the target named is T1, human PD-L1-Fc chimeric protein (human, UniProt Q9NZQ7 19-238).
T1 construct: not shown: Fc part, captured by an anti-human IgG Fc antibody
The experiment can be described thus: SPR Biacore T200, PD-L1-Fc captured by anti-human Fc.

A further experiment addresses T2, human serum albumin (human, UniProt P02768 25-609).
T2 construct: also called HSA; human SA
The experiment can be described thus: SPR Biacore T200, SA amine-coupled to CM5 chip, pH 5.5.

B1: PRO1013 (scFv)
scFv: DIQMTQSPSSLSASVGDRVTITCQASQSIGTYLAWYQQKPGKAPKLLIYRAFILASGVPSRFSGSGSGTDFTLTISSLQPEDFATYYCQSNFYSDSTTIGPNAFGTGTKVTVLGGGGGSGGGGSGGGGSGGGGSQVQLVQSGAEVKKPGASVKVSCKASGFSFNSDYWIYWVRQAPGQGLEWMGSIYGGSSGNTQYASWAQGRVTMTRDTSISTAYMELSSLRSEDTAVYYCARGYVDYGGATDLWGQGTLVTVSS
As for B1, the “IC50 (ng/ml), NF-AT Potency assay” value in experiment [1] stood at 21.3 ng/mL.

B2: PRO1059 (bispecific antibody, human IgG1, kappa, L234A L235A)
light: DIQMTQSPSSLSASVGDRVTITCQASQSINDYLAWYQQKPGKAPKLLIYKASTLASGVPSRFSGSGSGTDFTLTISSLQPEDFATYYCQQGYIITDIDNVFGTGTKVTVLGTVAAPSVFIFPPSDEQLKSGTASVVCLLNNFYPREAKVQWKVDNALQSGNSQESVTEQDSKDSTYSLSSTLTLSKADYEKHKVYACEVTHQGLSSPVTKSFNRGECGGGGSGGGGSIQMTQSPSSLSASVGDRVTITCQASQSINNVLAWYQQKPGKAPKLLIYRASTLASGVPSRFSGSGSGTDFTLTISSLQPEDFATYYCQSSYGNYGDFGTGTKVTVLGGGGGSGGGGSGGGGSGGGGSQVQLQESGPGLVKPSETLSLTCKVSGFSFSNSYWICWIRQPPGKGLEWIGCTFVGSSDSTYYANWAKGRVTISVDSSKNQFSLKLSSVTAADTAVYYCARHPSDAVYGYANNLWGQGTLVTVSS
heavy: QVQLQESGPGLVKPSETLSLTCKVSGFSFSSGYDMCWIRQPPGKGLEWIGCVVAGSVDITYYASWAKGRVTISVDSSKNQFSLKLSSVTAADTAVYYCARKDAYSDAFNLWGQGTLVTVSSASTKGPSVFPLAPSSKSTSGGTAALGCLVKDYFPEPVTVSWNSGALTSGVHTFPAVLQSSGLYSLSSVVTVPSSSLGTQTYICNVNHKPSNTKVDKRVEPKSCDKTHTCPPCPAPEAAGGPSVFLFPPKPKDTLMISRTPEVTCVVVDVSHEDPEVKFNWYVDGVEVHNAKTKPREEQYNSTYRVVSVLTVLHQDWLNGKEYKCKVSNKALGAPIEKTISKAKGQPREPQVYTLPPSREEMTKNQVSLTCLVKGFYPSDIAVEWESNGQPENNYKTTPPVLDSDGSFFLYSKLTVDKSRWQQGNVFSCSVMHEALHNHYTQKSLSLSPGK
On to B2, for which the “IC50 (ng/ml), NF-AT Potency assay” value in experiment [1] came out at 93.8 ng/mL.

B3: PRO1058 (other)
chain: DIQMTQSPSSLSASVGDRVTITCQASQSINDYLAWYQQKPGKAPKLLIYKASTLASGVPSRFSGSGSGTDFTLTISSLQPEDFATYYCQQGYIITDIDNVFGTGTKVTVLGGGGGSQVQLQESGPGLVKPSETLSLTCKVSGFSFNNDYDMCWIRQPPGKGLEWIGCIDTGDGSTYYASWAKGRVTISVDSSKNQFSLKLSSVTAADTAVYYCAREAASSSGYGMGYFDLWGQGTLVTVSSGGGGSGGGGSGGGGSGGGGSIQMTQSPSSLSASVGDRVTITCQSSQSVYDNNWLAWYQQKPGKAPKLLIYRASNLASGVPSRFSGSGSGTDFTLTISSLQPEDFATYYCQGTYLSSNWYWAFGTGTKVTVLGGGGGSQVQLQESGPGLVKPSETLSLTCKVSGFSFSSGYDMCWIRQPPGKGLEWIGCVVAGSVDITYYASWAKGRVTISVDSSKNQFSLKLSSVTAADTAVYYCARKDAYSDAFNLWGQGTLVTVSSGGGGSGGGGSVVMTQSPSSLSASVGDRVTITCQASQIISSRSAWYQQKPGQPPKLLIYQASKLASGVPSRFSGSGSGTDFTLTISSLQPEDFATYYCQCTYIDSNFGAFGGGTKLTVLGGGGGSGGGGSGGGGSGGGGSEVQLVESGGGLVQPGGSLRLSCAASGFSFSSSYWICWVRQAPGKGLEWVGCVFTGDGTTYYASWAKGRFTISRDNSKNTVYLQMNSLRAEDTATYFCARPVSVYYYGMDLWGQGTLVTVSS
notes: also called 38_27_C05 sc01 scDb-i/33-03-G02 sc01 scDb-o/mxr HSA (23-13-A01-sc03,sk17sh4)
B3: the binding result (in experiment [2]; in the experiment with human serum albumin) was “binds” in each case.

B4: PRO951 (bispecific antibody)
chain: DIQMTQSPSSLSASVGDRVTITCQASQSINDYLAWYQQKPGKAPKLLIYKASTLASGVPSRFSGSGSGTDFTLTISSLQPEDFATYYCQQGYIITDIDNVFGTGTKVTVLGGGGGSEVQLVESGGGLVQPGGSLRLSCAASGFSFNNDYDMCWVRQAPGKGLEWIGCIDTGDGSTYYASWAKGRFTISRDNSKNTVYLQMNSLRAEDTAVYYCAREAASSSGYGMGYFDLWGQGTLVTVSSGGGGSGGGGSGGGGSGGGGSIQMTQSPSSLSASVGDRVTITCQSSQSVYDNNWLAWYQQKPGKAPKLLIYRASNLASGVPSRFSGSGSGTDFTLTISSLQPEDFATYYCQGTYLSSNWYWAFGTGTKVTVLGGGGGSQVQLQESGPGLVKPSETLSLTCKVSGFSFSSGYDMCWIRQPPGKGLEWIGCVVAGSVDITYYASWAKGRVTISVDSSKNQFSLKLSSVTAADTAVYYCARKDAYSDAFNLWGQGTLVTVSS
On to B4, for which the “IC50 (ng/ml), NF-AT Potency assay” value in experiment [1] is 88.5 ng/mL.

B5: PRO1123 (bispecific antibody)
chain: DIQMTQSPSSLSASVGDRVTITCQASQSINDYLAWYQQKPGKAPKLLIYKASTLASGVPSRFSGSGSGTDFTLTISSLQPEDFATYYCQQGYIITDIDNVFGTGTKVTVLGGGGGSQVQLQESGPGLVKPSETLSLTCKVSGFSFSNSYWICWVRQPPGKGLEWIGCTFVGSSDSTYYANWAKGRVTISVDSSKNQVSLKLSSVTAADTAVYFCARHPSDAVYGYANNLWGQGTLVTVSSGGGGSGGGGSGGGGSGGGGSIQMTQSPSSLSASVGDRVTITCQASQSINNVLAWYQQKPGKPPKLLIYRASTLASGVPSRFSGSGSGTDFTLTISSLQPEDFATYYCQSSYGNYGDFGTGTKVTVLGGGGGSQVQLQESGPGLVKPSETLSLTCKVSGFSFSSGYDMCWIRQPPGKGLEWIGCVVAGSVDITYYASWAKGRVTISVDSSKNQFSLKLSSVTAADTAVYYCARKDAYSDAFNLWGQGTLVTVSS
notes: also called 38-02-A04 sc05 IF scDb-i/33 03 G02 sc01 scDb-o
Turning to B5, in experiment [2], the binding result was “binds”.

B6: PRO963 (other)
chain: DIQMTQSPSSLSASVGDRVTITCQASQSINDYLAWYQQKPGKAPKLLIYKASTLASGVPSRFSGSGSGTDFTLTISSLQPEDFATYYCQQGYIITDIDNVFGTGTKVTVLGGGGGSQVQLQESGPGLVKPSETLSLTCKVSGFSFSNSYWICWIRQPPGKGLEWIGCTFVGSSDSTYYANWAKGRVTISVDSSKNQFSLKLSSVTAADTAVYYCARHPSDAVYGYANNLWGQGTLVTVSSGGGGSGGGGSGGGGSGGGGSIQMTQSPSSLSASVGDRVTITCQASQSINNVLAWYQQKPGKAPKLLIYRASTLASGVPSRFSGSGSGTDFTLTISSLQPEDFATYYCQSSYGNYGDFGTGTKVTVLGGGGGSQVQLQESGPGLVKPSETLSLTCKVSGFSFSSGYDMCWIRQPPGKGLEWIGCVVAGSVDITYYASWAKGRVTISVDSSKNQFSLKLSSVTAADTAVYYCARKDAYSDAFNLWGQGTLVTVSSGGGGSGGGGSIQMTQSPSSLSASVGDRVTITCQSSESVYSNNQLSWYQQKPGQPPKLLIYDASDLASGVPSRFSGSGSGTDFTLTISSLQPEDFATYYCAGGFSSSSDTAFGGGTKLTVLGGGGGSGGGGSGGGGSGGGGSEVQLVESGGGLVQPGGSLRLSCAASGFSLSSNAMGWVRQAPGKGLEYIGIISVGGFTYYASWAKGRFTISRDNSKNTVYLQMNSLRAEDTATYFCARDRHGGDSSGAFYLWGQGTLVTVSS
notes: also called PRO1051; 38_02_A04 sc01 scDb-i/33-03-G02 sc01 scDb-o/19-01-H04-sc03 scFv
Take B6: the binding result with human serum albumin is “binds”. Also, the “IC50 (ng/ml), NF-AT Potency assay, with HSA” value in experiment [1] amounted to 275 ng/mL.

B7: PRO966 (other)
chain: DIQMTQSPSSLSASVGDRVTITCQASQSINDYLAWYQQKPGKAPKLLIYKASTLASGVPSRFSGSGSGTDFTLTISSLQPEDFATYYCQQGYIITDIDNVFGTGTKVTVLGGGGGSQVQLQESGPGLVKPSETLSLTCKVSGFSFNNDYDMCWIRQPPGKGLEWIGCIDTGDGSTYYASWAKGRVTISVDSSKNQFSLKLSSVTAADTAVYYCAREAASSSGYGMGYFDLWGQGTLVTVSSGGGGSGGGGSGGGGSGGGGSIQMTQSPSSLSASVGDRVTITCQSSQSVYDNNWLAWYQQKPGKAPKLLIYRASNLASGVPSRFSGSGSGTDFTLTISSLQPEDFATYYCQGTYLSSNWYWAFGTGTKVTVLGGGGGSQVQLQESGPGLVKPSETLSLTCKVSGFSFSSGYDMCWIRQPPGKGLEWIGCVVAGSVDITYYASWAKGRVTISVDSSKNQFSLKLSSVTAADTAVYYCARKDAYSDAFNLWGQGTLVTVSSGGGGSGGGGSIQMTQSPSSLSASVGDRVTITCQSSESVYSNNQLSWYQQKPGQPPKLLIYDASDLASGVPSRFSGSGSGTDFTLTISSLQPEDFATYYCAGGFSSSSDTAFGGGTKLTVLGGGGGSGGGGSGGGGSGGGGSEVQLVESGGGLVQPGGSLRLSCAASGFSLSSNAMGWVRQAPGKGLEYIGIISVGGFTYYASWAKGRFTISRDNSKNTVYLQMNSLRAEDTATYFCARDRHGGDSSGAFYLWGQGTLVTVSS
notes: also called PRO1052; 38_27_C05 sc01 scDb-i/33-03-G02 sc01 scDb-o/19-01-H04-sc03 scFv
B7: the binding result (in experiment [2]; with human serum albumin) was “binds” in each case.

B8: PRO830 (scFv)
scFv: DIQMTQSPSSLSASVGDRVTITCQASQSINDYLAWYQQKPGKAPKLLIYKASTLASGVPSRFSGSGSGTDFTLTISSLQPEDFATYYCQQGYIITDIDNVFGTGTKVTVLGGGGGSGGGGSGGGGSGGGGSQVQLQESGPGLVKPSETLSLTCKVSGFSFSSGYDMCWIRQPPGKGLEWIGCVVAGSVDITYYASWAKGRVTISVDSSKNQFSLKLSSVTAADTAVYYCARKDAYSDAFNLWGQGTLVTVSS
As to B8, the “IC50 (ng/ml), NF-AT Potency assay” value in experiment [1] was determined as 42.9 ng/mL.

B9: PRO1060 (bispecific antibody, human IgG1, kappa, L234A L235A)
light: DIQMTQSPSSLSASVGDRVTITCQASQSINDYLAWYQQKPGKAPKLLIYKASTLASGVPSRFSGSGSGTDFTLTISSLQPEDFATYYCQQGYIITDIDNVFGTGTKVTVLGTVAAPSVFIFPPSDEQLKSGTASVVCLLNNFYPREAKVQWKVDNALQSGNSQESVTEQDSKDSTYSLSSTLTLSKADYEKHKVYACEVTHQGLSSPVTKSFNRGEC
heavy: QVQLQESGPGLVKPSETLSLTCKVSGFSFSSGYDMCWIRQPPGKGLEWIGCVVAGSVDITYYASWAKGRVTISVDSSKNQFSLKLSSVTAADTAVYYCARKDAYSDAFNLWGQGTLVTVSSASTKGPSVFPLAPSSKSTSGGTAALGCLVKDYFPEPVTVSWNSGALTSGVHTFPAVLQSSGLYSLSSVVTVPSSSLGTQTYICNVNHKPSNTKVDKRVEPKSCDKTHTCPPCPAPEAAGGPSVFLFPPKPKDTLMISRTPEVTCVVVDVSHEDPEVKFNWYVDGVEVHNAKTKPREEQYNSTYRVVSVLTVLHQDWLNGKEYKCKVSNKALGAPIEKTISKAKGQPREPQVYTLPPSREEMTKNQVSLTCLVKGFYPSDIAVEWESNGQPENNYKTTPPVLDSDGSFFLYSKLTVDKSRWQQGNVFSCSVMHEALHNHYTQKSLSLSPGKGGGGSGGGGSIQMTQSPSSLSASVGDRVTITCQASQSINNVLAWYQQKPGKAPKLLIYRASTLASGVPSRFSGSGSGTDFTLTISSLQPEDFATYYCQSSYGNYGDFGTGTKVTVLGGGGGSGGGGSGGGGSGGGGSQVQLQESGPGLVKPSETLSLTCKVSGFSFSNSYWICWIRQPPGKGLEWIGCTFVGSSDSTYYANWAKGRVTISVDSSKNQFSLKLSSVTAADTAVYYCARHPSDAVYGYANNLWGQGTLVTVSS
On to B9, for which the “IC50 (ng/ml), NF-AT Potency assay” value in experiment [1] came out at 133 ng/mL.

These data come from EP3470429A1 (Numab Innovation AG, dated 2019).
